Source: patent US20200040057A1 (IMMATICS BIOTECHNOLOGIES, published 2020)

Assays:
[1] = biological target: HLA-B*07 (human); assay: UV peptide exchange ELISA; ++ = yield >20%
[2] = biological target: HLA-B*07 (human); assay: UV peptide exchange ELISA; +++ = yield >50

Binder: RTKEEINEL
- peptide exchange yield [1]: 20 to 50%

Binder: MTLPATTLTL
- peptide exchange yield [1]: 20 to 50%

Binder: IPFADVKSF
- peptide exchange yield [1]: 20 to 50%

Binder: APVGGNVTSSF
- peptide exchange yield [2]: 50 to 75%

Binder: RPFSREMDL
- peptide exchange yield [2]: 50 to 75%

Binder: MPAVSGPGPLF
- peptide exchange yield [2]: 50 to 75%

Binder: VPFVPRTSV
- peptide exchange yield [2]: 50 to 75%

Binder: RIRVTSEVL
- peptide exchange yield [2]: 50 to 75%

Binder: KIIASGNHL
- peptide exchange yield [1]: 20 to 50%

Binder: RPSGTAGAALLA
- peptide exchange yield [1]: 20 to 50%

Binder: TSPLPPTV
- peptide exchange yield [2]: 50 to 75%

Binder: PEKARAFL
- peptide exchange yield [2]: 50 to 75%

Binder: APCNGNVAV
- peptide exchange yield [2]: 50 to 75%

Binder: APRSPGQVTPRGL
- peptide exchange yield [2]: 50 to 75%

Binder: HPSQESPTL
- peptide exchange yield [2]: 50 to 75%

Binder: KAHVRIEL
- peptide exchange yield [1]: 20 to 50%

Binder: LPPPRALTL
- peptide exchange yield [2]: 50 to 75%

Binder: RPQGAVGGL
- peptide exchange yield [2]: 50 to 75%

Binder: RPFLRLPSL
- peptide exchange yield [2]: 50 to 75%

Binder: KPRATWTL
- peptide exchange yield [2]: 50 to 75%

Binder: IPENRVVSY
- peptide exchange yield [1]: 20 to 50%

Binder: VPAAPTKAL
- peptide exchange yield [2]: 50 to 75%

Binder: SAAPPGASL
- peptide exchange yield [2]: 50 to 75%

Binder: SPFSKRIKL
- peptide exchange yield [2]: 50 to 75%

Binder: KPQSTISGL
- peptide exchange yield [2]: 50 to 75%

Binder: VPVSHPVLTL
- peptide exchange yield [2]: 50 to 75%

Binder: LPELPTTLTF
- peptide exchange yield [1]: 20 to 50%

Binder: APSMLRKNQL
- peptide exchange yield [2]: 50 to 75%

Binder: APLPPPRAL
- peptide exchange yield [2]: 50 to 75%

Binder: KPAAAGVKKVA
- peptide exchange yield [2]: 50 to 75%

Binder: SVPVATVEL
- peptide exchange yield [1]: 20 to 50%

Binder: FPHMATTAF
- peptide exchange yield [2]: 50 to 75%

Binder: LPMSKRQEY
- peptide exchange yield [2]: 50 to 75%

Binder: ASKILETSL
- peptide exchange yield [1]: 20 to 50%

Binder: APRPRLLLL
- peptide exchange yield [2]: 50 to 75%

Binder: KPRATWTLKL
- peptide exchange yield [2]: 50 to 75%

Binder: KPMLPPAAF
- peptide exchange yield [2]: 50 to 75%

Binder: APFAPLHGGGSL
- peptide exchange yield [2]: 50 to 75%

Binder: HPAPPVTSA
- peptide exchange yield [2]: 50 to 75%

Binder: LPLRAVNLNL
- peptide exchange yield [2]: 50 to 75%

Binder: GAYDKARYL
- peptide exchange yield [1]: 20 to 50%

Binder: FVPPSGPSNPM
- peptide exchange yield [1]: 20 to 50%

Binder: APMAPGRSP
- peptide exchange yield [2]: 50 to 75%

Binder: APEKARAFL
- peptide exchange yield [2]: 50 to 75%

Binder: MAGPAIHTAPM
- peptide exchange yield [1]: 20 to 50%

Binder: HAAASFETL
- peptide exchange yield [1]: 20 to 50%

Binder: GPASDHPSL
- peptide exchange yield [2]: 50 to 75%

Binder: QPISGNPVTL
- peptide exchange yield [2]: 50 to 75%

Binder: QPRPSSEKI
- peptide exchange yield [2]: 50 to 75%

Binder: YPGFTKRL
- peptide exchange yield [2]: 50 to 75%

Binder: MPMQDIKMILKM
- peptide exchange yield [2]: 50 to 75%

Binder: SPFWIHQA
- peptide exchange yield [1]: 20 to 50%

Binder: HVRPQTNCI
- peptide exchange yield [2]: 50 to 75%

Binder: SPARALLLALA
- peptide exchange yield [2]: 50 to 75%

Binder: SPYADIIPSA
- peptide exchange yield [2]: 50 to 75%

Binder: MARTGGMVVI
- peptide exchange yield [1]: 20 to 50%

Binder: VPSCGRSVEGL
- peptide exchange yield [2]: 50 to 75%

Binder: KPRGPIDI
- peptide exchange yield [1]: 20 to 50%

Binder: RPGPSDPAA
- peptide exchange yield [2]: 50 to 75%

Binder: SPAKQFNIY
- peptide exchange yield [1]: 20 to 50%

Binder: RPEDGRPRL
- peptide exchange yield [2]: 50 to 75%

Binder: IPVSHPVLTF
- peptide exchange yield [1]: 20 to 50%

Binder: REPIMKADML
- peptide exchange yield [1]: 20 to 50%

Binder: SALPTTISF
- peptide exchange yield [2]: 50 to 75%

Binder: KEDNPSGHTYTL
- peptide exchange yield [2]: 50 to 75%

Binder: VIINNPISL
- peptide exchange yield [1]: 20 to 50%

Binder: YVVKPLHPF
- peptide exchange yield [2]: 50 to 75%

Binder: IPVAIKEL
- peptide exchange yield [1]: 20 to 50%

Binder: TRPWSGPYIL
- peptide exchange yield [2]: 50 to 75%

Binder: LPLGGLPLLI
- peptide exchange yield [2]: 50 to 75%

Binder: RPRPPKVLGL
- peptide exchange yield [2]: 50 to 75%

Binder: YGPYGSGSGW
- peptide exchange yield [1]: 20 to 50%

Binder: MPMQDIKMI
- peptide exchange yield [2]: 50 to 75%

Binder: RPRYSIGL
- peptide exchange yield [2]: 50 to 75%
